Among the data in the Immune Epitope Database (IEDB) are Kd values, retold here.

The term Kd denotes the concentration at which binding is half-saturated. The low end stands for tighter binding, the high end for weaker binding.

Details in all cases: source organism: Yersinia pestis Nepal516
The target in assay [1] is HLA-B*40:13. The experiment in a line: IEDB peptide-MHC binding, purified MHC/competitive/fluorescence; filed as Kd, often an IC50 or EC50 that approximates it; ≥ and ≤ were set here for values at or beyond the usual limits of such assays.
Assay [2] deals with HLA-B*45:06. The assay is described as above.
The target of assay [3] is HLA-B*27:20. The assay is described as above.
For assay [4], the target named is HLA-B*58:01. The assay is described as above.
The target in assay [5] is HLA-C*06:02. The description is as above.
The target of assay [6] is HLA-A*26:01. The description is as above.
The target in assay [7] is HLA-A*32:15. The description is as above.
The target in assay [8] is HLA-B*15:01. The assay is described as above.
Assay [9] concerns the target HLA-A*02:01. Described as above.
Assay [10] concerns the target HLA-B*83:01. The assay is described as above.
Assay [11] addresses HLA-B*15:42. The description is as above.
In assay [12] the target is HLA-C*15:02. The experiment in a line: IEDB peptide-MHC binding, purified MHC/direct/fluorescence; filed as Kd, often an IC50 or EC50 that approximates it; ≥ and ≤ were set here for values at or beyond the usual limits of such assays.
The target of assay [13] is HLA-C*14:02. The assay is described as above.

As to YMYDFILRF, the dissociation constant Kd in assay [1] is 159 nM; in assay [2] it was at least 5 µM; in [3], 63.3 nM; in assay [4] it was at least 20 µM; in assay [5], 1180 nM; in assay [6], at least 20 µM. The dissociation constant (Kd) in [7] is 908 nM; in [8], 2330 nM; in assay [9] it was 15.9 nM; in assay [10], at least 5 µM; in [11] it was at least 5 µM; in assay [12], at least 20 µM. In addition, the Kd in assay [13] was found to be 4.11 µM.
